How the values were obtained:
[1] = molecular target: T1, CTLA-4-hFc (immunogen A; hFc-labeled CTLA-4 extracellular domain protein) (human, UniProt P16410 36-161); test: ELISA, coated CTLA-4-hFc, competitor biotin-B7.1-hFc
T1 construct: range 36-161; Made in HEK293 cells, purified on protein A; also called CLTA-4-hFc; CTLA-4 protein; not shown: human IgG Fc fragment (hFc) of the pCpC vector
T1 sequence (looked up): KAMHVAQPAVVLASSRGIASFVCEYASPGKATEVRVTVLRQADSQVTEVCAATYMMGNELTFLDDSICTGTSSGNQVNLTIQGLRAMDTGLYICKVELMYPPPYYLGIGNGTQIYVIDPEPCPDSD
Protocol: (§1) CTLA-4 extracellular domain protein (CTLA-4-hFc) was diluted with PBS to a final concentration of 1.0 μg/mL, and then added to a 96-well ELISA plate as 100 μl per well. The plate was covered with a plastic film and incubated overnight at 4° C. The plate was washed twice with plate washing solution [PBS containing 0.01% (v/v) Tween 20] on the next day, and added with blocking solution [PBS containing 0.01% (v/v) Tween 20 and 1% (w/w) BSA] and blocked at room temperature for 2 hours. […] After 2 hours, the plate was washed 3 times with a plate washing solution [PBS containing 0.01% (v/v) Tween 20]. HRP (horseradish peroxidase) labeled avidin diluent (purchased from Sigma) was added 100 microliters per well, and after the plate was incubated for 2 hours at 37° C., it was washed with plate washing solution [PBS containing 0.01% (v/v) Tween 20] for 3 times. […] TMB substrate was added to each well. After incubated at room temperature for 30 minutes, the plate was added with […] stop solution (1.0N HCl) to each well. An ELISA plate reader (SpectraMax 384plus, Molecular Device) was used to read the A450 nm value.

[2] = molecular target: T1, CTLA-4-hFc (immunogen A; hFc-labeled …); test: ELISA, coated CTLA-4-hFc, competitor biotin-B7.2-hFc
Protocol: as §1

[3] = molecular target: T2, monkey CTLA-4, full length, on transfected HEK293 cells (monkey); test: FACS, 293F-cCTLA-4 cells
T2 construct: whole, on cells; also called cCTLA-4; HEK293-cCTLA-4
From the text: The pIRES plasmid with the monkey-derived CTLA-4 full-length gene was transfected into the HEK293 cell line to construct a HEK293 stable cell line containing monkey CTLA-4 (herein referred to as HEK293-cCTLA-4 stable cell line), wherein the database accession number of the monkey CTLA-4 nucleotide sequence is XM_005574014.1. The HEK293-hCTLA-4 stable cell line and HEK293-cCTLA-4 stable cell line were expanded in a T-75 cell culture flask to a 90% confluence. The medium was aspirated, and the cells were washed with HBSS buffer (Hanks Balanced Salt Solution, purchased from Invitrogen) twice, then treated with an enzyme-free cell dissociation fluid (Versene solution, purchased from Life technology) and the cells were collected. The cells were washed with HBSS buffer twice. After counted, the cells were diluted with HBSS buffer to 2×10⁶ cells per ml, added with 1% goat serum blocking solution, wherein the percentage was the mass percantage. Cells were incubated on ice for 30 minutes, then washed twice with HBSS buffer by centrifugation. The collected cells were suspended in the FACS buffer (HBSS containing 1% BSA, wherein the percentage was the mass percantage) to 2×10⁶ cells/ml, added as 100 microliters per well to a 96-well FACS reaction plate, added with 100 microliters per well of the purified CTLA-4 antibody sample to be tested, incubated on ice for 2 hours. The plate was washed twice with the FACS buffer by centrifugation, added with 100 microliters of fluorescent (Alexa 488)-labeled secondary antibodies (purchased from Invitrogen) per well, and incubated on ice for 1 hour. The plate was washed 3 times with FACS buffer by centrifugation, added with 100 μl fixative solution [4% (v/v) Paraformaldehyde] per well to suspend the cells. 10 minutes later, it was washed 2 times with FACS buffer by centrifugation. The cells were suspended with 100 microliters of FACS buffer, FACS (FACS Calibur, purchased from BD) was used for detection and the results were analyzed.

[4] = molecular target: T1, CTLA-4-hFc (immunogen A; hFc-labeled …); test: competition ELISA: CTLA-4-hFc coated, antibody titrated, blocked ligand biotin-labeled B7.2-hFc, HRP-avidin, A450, inhibition (%)
Protocol: as §1

[5] = molecular target: T3, human CTLA-4 (Y201V), full length, on transfected cells (human, UniProt P16410 36-223); test: FACS, CHOK1-hCTLA-4 cells
T3 construct: whole, on cells; also called hCTLA-4; HEK293-hCTLA-4 (Y201V)
T3 sequence (looked up): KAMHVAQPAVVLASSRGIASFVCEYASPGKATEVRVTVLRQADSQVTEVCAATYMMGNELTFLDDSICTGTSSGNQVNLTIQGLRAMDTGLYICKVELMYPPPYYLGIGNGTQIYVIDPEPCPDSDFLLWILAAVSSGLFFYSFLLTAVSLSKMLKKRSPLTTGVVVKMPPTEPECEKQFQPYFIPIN

[6] = molecular target: T1, CTLA-4-hFc (immunogen A; hFc-labeled …); test: competition ELISA: CTLA-4-hFc coated, antibody titrated, blocked ligand biotin-labeled B7.1-hFc, HRP-avidin, A450, inhibition (%)
Protocol: as §1

B1: 40C4C6 (chimeric antibody purified from hybridoma supernatant) (antibody, V domains shown)
VH: QVQLVESGGGVVQPGRSLRLSCAASGFTFSSYGMHWVRQAPGKGLEWVAVIWYDGRNKYYADSVKGRFTISRDNSKNTLYLQMNSLRAEDTAVYYCARASGSYSYYFDYWGQGTLVTVSS
VL: DIQMTQSPSSLSASVGGRVTITCRASQSISSFLNWYQHELGKAPKLLIYGASSLQSGVPSRFSGSGSGTDFTLTISSLQPEDFATYYCQQTYSTPFTFGPGTKVDIK
notes: also called mAb09; mAb009
Question: What does the source list for B1?
Answer: Inhibition rate (%) at 0.00091 nM [1]: 0%; Inhibition rate (%) at 0.091 nM [1]: 12.7%; Inhibition rate (%) at 0.274 nM [1]: 40%; Inhibition rate (%) at 0.823 nM [1]: 63.1%; Inhibition rate (%) at 2.5 nM [1]: 75.2%; Inhibition rate (%) at 7.4 nM [1]: 80.7%; Inhibition rate (%) at 22.2 nM [1]: 87.5%; Inhibition rate (%) at 66.7 nM [1]: 89.7%; Inhibition rate (%) at 0.00091 nM [2]: 0%; Inhibition rate (%) at 0.091 nM [2]: 5.3%; Inhibition rate (%) at 0.274 nM [2]: 26.4%; Inhibition rate (%) at 0.823 nM [2]: 53.3%; Inhibition rate (%) at 2.5 nM [2]: 66.6%; Inhibition rate (%) at 7.4 nM [2]: 76.6%; Inhibition rate (%) at 22.2 nM [2]: 84.6%; Inhibition rate (%) at 66.7 nM [2]: 88.7%; MFI at 0.000128 nM [3]: 2.4; MFI at 0.0128 nM [3]: 23; MFI at 0.064 nM [3]: 68.6; MFI at 0.32 nM [3]: 219; MFI at 1.6 nM [3]: 421; MFI at 8 nM [3]: 619; MFI at 40 nM [3]: 626; MFI at 200 nM [3]: 643; IC50 (read off the curve) [4]: ~0.5 nM; MFI at 0.07 nM [5]: 43.3; MFI at 0.67 nM [5]: 146; MFI at 6.67 nM [5]: 403; MFI at 66.67 nM [5]: 449; IC50 (read off the curve) [6]: ~0.3 nM

From patent publication US20210324080A1 (JIANGSU HUAIYU PHARMACEUTICAL, published 2021)
